Publication PMC8158265, “Inhibition of catechol-O-methyltransferase by natural pentacyclic triterpenes: structure–activity relationships and kinetic mechanism” (Journal of Enzyme Inhibition and Medicinal Chemistry, 2021)

Substrate: O=c1oc2c(O)c(O)ccc2cc1-c1nc2ccccc2s1
Experiment: Inhibition kinetics of human S-COMT catalysed O-methylation of 3-BTD
Type: biochemical
Details: other: 3-BTD as substrate, no inhibitor; pH 7.4; 37.0 °C

B1: recombinant human S-COMT (Homo sapiens) (protein)
chain: MGDTKEQRILNHVLQHAEPGNAQSVLEAIDTYCEQKEWAMNVGDKKGKIVDAVIQEHQPSVLLELGAYCGYSAVRMARLLSPGARLITIEINPDCAAITQRMVDFAGVKDKVTLVVGASQDIIPQLKKKYDVDTLDMVFLDHWKDRYLPDTLLLEECGLLRKGTVLLADNVICPGAPDFLAHVRGSSCFECTHYQSFLEYREVVDGLEKAIYKGPGSEAGP
notes: made in house
- Km: 0.38 ± 0.029 µM
- Vmax: 13.8 ± 0.30 nmol/min/mg protein
